Laboratory results from article PMC2953525, “Subtle Alterations in PCNA-Partner Interactions Severely Impair DNA Replication and Repair” (PLoS Biology, 2010).

What was measured:
Assay in all cases: two-hybrid; quantitative Y2H: generation time of the YRG2 strains in liquid SC-Leu-Trp-His, given relative to cells expressing WT PCNA; average of at least 3 experiments
Conditions in all cases: partners not purified
[1] = molecular target: T1, pol30-Rad27L1 (yeast, UniProt P15873 1-258, IDCL DIDADFLKIEEL to D––VDILKIGEL)
T1 construct: PCNA (POL30), yeast; two residues after the first aspartic acid of the IDCL are deleted; source: yeast two-hybrid fusion (pAD-GAL4, strain YRG2)
T1 sequence: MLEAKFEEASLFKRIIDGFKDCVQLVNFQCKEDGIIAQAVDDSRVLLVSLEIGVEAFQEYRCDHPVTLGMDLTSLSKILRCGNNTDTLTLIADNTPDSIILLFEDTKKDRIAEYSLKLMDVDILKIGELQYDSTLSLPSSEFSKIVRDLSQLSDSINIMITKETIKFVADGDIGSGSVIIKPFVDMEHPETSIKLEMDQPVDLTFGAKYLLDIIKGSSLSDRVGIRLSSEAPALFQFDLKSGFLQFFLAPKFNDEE

[2] = molecular target: T2, pol30-Rad27L2 (yeast, UniProt P15873 1-258, IDCL DIDADFLKIEEL to D––VDTLKITEL)
T2 construct: PCNA (POL30), yeast; two residues after the first aspartic acid of the IDCL are deleted; source: yeast two-hybrid fusion (pAD-GAL4, strain YRG2)
T2 sequence: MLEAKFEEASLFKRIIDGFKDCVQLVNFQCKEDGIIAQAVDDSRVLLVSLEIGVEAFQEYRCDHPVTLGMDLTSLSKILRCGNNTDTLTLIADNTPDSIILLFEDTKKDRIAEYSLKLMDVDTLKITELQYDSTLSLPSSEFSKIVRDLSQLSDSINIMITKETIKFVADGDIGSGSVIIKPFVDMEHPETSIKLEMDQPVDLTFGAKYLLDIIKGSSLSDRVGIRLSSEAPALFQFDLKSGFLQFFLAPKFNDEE

[3] = molecular target: T3, pol30-Rad30E9 (yeast, UniProt P15873 1-258, IDCL DIDADFLKIEEL to DNDWDFLKIDEL)
T3 construct: PCNA (POL30), yeast; also called Pol30-Rad30E9p; source: yeast two-hybrid fusion (pAD-GAL4, strain YRG2)
T3 sequence: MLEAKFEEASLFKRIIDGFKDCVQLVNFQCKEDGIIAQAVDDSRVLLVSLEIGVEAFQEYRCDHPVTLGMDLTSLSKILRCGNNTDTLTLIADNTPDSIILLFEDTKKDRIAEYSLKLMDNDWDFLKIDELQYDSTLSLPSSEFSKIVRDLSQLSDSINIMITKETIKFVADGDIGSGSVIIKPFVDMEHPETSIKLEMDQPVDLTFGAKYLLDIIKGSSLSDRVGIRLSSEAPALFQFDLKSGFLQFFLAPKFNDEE

[4] = molecular target: T4, pol30-79 (yeast, UniProt P15873 1-258, IDCL DIDADFLKIEEL to DIDADFAKAEEL)
T4 construct: PCNA (POL30), yeast; the changes are then L126A and I128A; also called PCNA79; source: yeast two-hybrid fusion (pAD-GAL4, strain YRG2)
T4 sequence: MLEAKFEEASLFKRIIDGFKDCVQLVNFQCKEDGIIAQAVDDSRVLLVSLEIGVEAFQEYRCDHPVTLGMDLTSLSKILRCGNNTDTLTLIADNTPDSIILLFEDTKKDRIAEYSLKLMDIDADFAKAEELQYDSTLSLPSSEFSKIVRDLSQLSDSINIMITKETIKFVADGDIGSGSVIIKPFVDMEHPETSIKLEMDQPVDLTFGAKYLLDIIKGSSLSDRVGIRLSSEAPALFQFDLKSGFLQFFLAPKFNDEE

[5] = molecular target: T5, pol30-Rad27E31 (yeast, UniProt P15873 1-258, IDCL DIDADFLKIEEL to DGDYDVLKIREL)
T5 construct: PCNA (POL30), yeast; source: yeast two-hybrid fusion (pAD-GAL4, strain YRG2)
T5 sequence: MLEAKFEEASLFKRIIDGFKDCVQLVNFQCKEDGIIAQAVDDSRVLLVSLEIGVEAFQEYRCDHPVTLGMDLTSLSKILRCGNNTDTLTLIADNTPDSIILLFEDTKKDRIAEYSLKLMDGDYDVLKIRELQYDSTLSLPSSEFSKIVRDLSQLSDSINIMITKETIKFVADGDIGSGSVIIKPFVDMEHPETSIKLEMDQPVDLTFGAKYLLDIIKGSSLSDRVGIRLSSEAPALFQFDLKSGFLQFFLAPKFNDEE

fold change in affinity relative to WT PCNA (Y2H generation time) [1]: 1.7 fold
fold change in affinity relative to WT PCNA (Y2H generation time) [2]: 1.5 fold
fold change in affinity relative to WT PCNA (Y2H generation time) [3]: 0.5 fold
fold change in affinity relative to WT PCNA (Y2H generation time) [4]: 0.5 fold
fold change in affinity relative to WT PCNA (Y2H generation time) [5]: 1.5 fold
B1: Rad27 (natural protein, yeast, UniProt P26793 1-382, looked up)
chain: MGIKGLNAIISEHVPSAIRKSDIKSFFGRKVAIDASMSLYQFLIAVRQQDGGQLTNEAGETTSHLMGMFYRTLRMIDNGIKPCYVFDGKPPDLKSHELTKRSSRRVETEKKLAEATTELEKMKQERRLVKVSKEHNEEAQKLLGLMGIPYIIAPTEAEAQCAELAKKGKVYAAASEDMDTLCYRTPFLLRHLTFSEAKKEPIHEIDTELVLRGLDLTIEQFVDLCIMLGCDYCESIRGVGPVTALKLIKTHGSIEKIVEFIESGESNNTKWKIPEDWPYKQARMLFLDPEVIDGNEINLKWSPPKEKELIEYLCDDKKFSEERVKSGISRLKKGLKSGIQGRLDGFFQVVPKTKEQLAAAAKRAQENKKLNKNKNKVTKGRR
notes: Rad27 (endonuclease), yeast; also called pBD-Rad27; source: yeast two-hybrid fusion (pBD-GAL4, strain YRG2)
